For orientation: EC50 means the concentration at which the effect is half-maximal.

Experiment [1] deals with T1, Sortilin SORTECDBAP_hB45678 (human/tetraodon chimera).
T1 construct: Shuffle construct
T1 chain: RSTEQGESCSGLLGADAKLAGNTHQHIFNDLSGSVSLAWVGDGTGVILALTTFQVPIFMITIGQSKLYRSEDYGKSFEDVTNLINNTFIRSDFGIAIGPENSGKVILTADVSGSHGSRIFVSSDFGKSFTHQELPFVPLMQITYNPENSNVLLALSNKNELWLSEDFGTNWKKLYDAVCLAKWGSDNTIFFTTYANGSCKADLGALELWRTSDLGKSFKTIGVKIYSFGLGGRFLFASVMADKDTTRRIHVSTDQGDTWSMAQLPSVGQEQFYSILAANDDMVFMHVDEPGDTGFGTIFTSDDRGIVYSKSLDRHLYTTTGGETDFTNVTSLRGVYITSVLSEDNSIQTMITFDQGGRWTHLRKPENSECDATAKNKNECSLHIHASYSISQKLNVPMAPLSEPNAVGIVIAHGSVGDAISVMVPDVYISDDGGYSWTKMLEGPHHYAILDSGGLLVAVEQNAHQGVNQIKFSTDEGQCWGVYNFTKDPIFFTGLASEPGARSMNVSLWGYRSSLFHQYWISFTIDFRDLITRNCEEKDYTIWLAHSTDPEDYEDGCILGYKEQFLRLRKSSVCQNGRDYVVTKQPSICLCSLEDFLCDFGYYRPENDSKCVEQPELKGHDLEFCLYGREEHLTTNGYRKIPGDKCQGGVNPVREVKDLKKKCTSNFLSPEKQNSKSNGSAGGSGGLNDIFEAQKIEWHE
Put plainly: BLI Octet 384RED, antibody on Protein A sensor, Sortilin construct in solution. As to the method:
(§1) Binding kinetics of anti-Sortilin HuMab antibodies to Sortilin were determined using Octet 384RED (Fortebio, Menlo Park, USA). HuMab solutions of 2 μg/ml were made by dilution in sample diluent (ForteBio, art. No. 18-5028). Prot A sensors (ForteBio, art. no. 18-0004) were prewetted with kinetics buffer (1:10 sample diluent in PBS) for at least 600 seconds. Subsequently sensors were immobilized with HuMab solution for 600 seconds. A baseline response was obtained by dipping in kinetics buffer for 120 seconds. Association of SORTECD constructs was performed during a 1000 seconds incubation. This was followed by dissociation in kinetics buffer for 100 seconds. After dissociation, sensors were regenerated (10 mM Glycine pH 1.0) and neutralized (kinetics buffer) 3 times for 5 seconds. […] A molecular weight of 76.8 kDA was used for SORTECDHis. Data was fitted with ForteBio Analysis 6.4 software, using a global full fit.
(In general: Biolayer interferometry detects binding as a change in optical thickness at a sensor tip.)

The target of experiment [2] is T2, Sortilin SORTECDBAP_hB06-10 (human/tetraodon chimera).
T2 construct: Shuffle construct
T2 chain: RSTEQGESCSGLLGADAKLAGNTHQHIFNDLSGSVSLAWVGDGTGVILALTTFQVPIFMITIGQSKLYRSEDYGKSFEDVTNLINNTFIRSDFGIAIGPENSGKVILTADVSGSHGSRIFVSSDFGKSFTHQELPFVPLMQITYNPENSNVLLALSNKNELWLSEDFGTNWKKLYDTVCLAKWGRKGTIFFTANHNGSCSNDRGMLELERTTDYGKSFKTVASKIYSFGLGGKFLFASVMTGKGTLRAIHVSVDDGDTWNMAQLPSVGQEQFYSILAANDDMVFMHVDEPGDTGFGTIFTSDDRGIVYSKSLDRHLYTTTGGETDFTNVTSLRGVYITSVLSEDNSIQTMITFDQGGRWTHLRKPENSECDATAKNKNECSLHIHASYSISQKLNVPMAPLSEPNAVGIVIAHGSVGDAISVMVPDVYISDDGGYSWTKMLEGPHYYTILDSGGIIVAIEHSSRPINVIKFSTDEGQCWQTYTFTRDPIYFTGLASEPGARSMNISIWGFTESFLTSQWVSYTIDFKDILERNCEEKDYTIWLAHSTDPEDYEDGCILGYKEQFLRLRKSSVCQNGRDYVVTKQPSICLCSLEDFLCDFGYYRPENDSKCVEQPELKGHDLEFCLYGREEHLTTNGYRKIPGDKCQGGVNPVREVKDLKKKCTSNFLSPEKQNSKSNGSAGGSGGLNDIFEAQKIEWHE
The experiment is described as above. As to the method: as §1

B1: 1320 (antibody, V domains shown)
VH: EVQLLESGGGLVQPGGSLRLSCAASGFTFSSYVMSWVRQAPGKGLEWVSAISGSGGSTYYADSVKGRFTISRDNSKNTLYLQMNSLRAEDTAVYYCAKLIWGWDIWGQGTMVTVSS
VL: EIVLTQSPATLSLSPGERATLSCRASQSVSSYLAWYQQRPGQAPRLLIYDASNRATGIPARFSGSGSGTDFTLSISSLEPEDFAVYYCQQRTNWSITFGQGTRLEIK
notes: also called IgG1-6003-1320; Antibody 1320
As for B1, in experiment [1], the binding result is reported as “no binding (tested: 10 µg/ml construct)”. This molecule also registered an EC50 in experiment [2] of 0.0554 µg/mL.

Source of the values: patent US20230159643A1 (H LUNDBECK A S, published 2023).
